Experimental data as given in IntAct's records for PubMed 16511560.

B1: Protein Mdm4 (Homo sapiens), O15151 (parent)
chain: MTSFSTSAQCSTSDSACRISPGQINQVRPKLPLLKILHAAGAQGEMFTVKEVMHYLGQYIMVKQLYDQQEQHMVYCGGDLLGELLGRQSFSVKDPSPLYDMLRKNLVTLATATTDAAQTLALAQDHSMDIPSQDQLKQSAEESSTSRKRTTEDDIPTLPTSEHKCIHSREDEDLIENLAQDETSRLDLGFEEWDVAGLPWWFLGNLRSNYTPRSNGSTDLQTNQDVGTAIVSDTTDDLWFLNESVSEQLGVGIKVEAADTEQTSEEVGKVSDKKVIEVGKNDDLEDSKSLSDDTDVEVTSEDEWQCTECKKFNSPSKRYCFRCWALRKDWYSDCSKLTHSLSTSDITAIPEKENEGNDVPDCRRTISAPVVRPKDAYIKKENSKLFDPCNSVEFLDLAHSSESQETISSMGEQLDNLSEQRTDTENMEDCQNLLKPCSLCEKRPRDGNIIHGRTGHLVTCFHCARRLKKAGASCPICKKEIQLVIKVFIA

Variants of: B1
Conditions: with ima4_human KPNA3, O00505
Chain of ima4_human KPNA3, O00505 (O00505 whole entry): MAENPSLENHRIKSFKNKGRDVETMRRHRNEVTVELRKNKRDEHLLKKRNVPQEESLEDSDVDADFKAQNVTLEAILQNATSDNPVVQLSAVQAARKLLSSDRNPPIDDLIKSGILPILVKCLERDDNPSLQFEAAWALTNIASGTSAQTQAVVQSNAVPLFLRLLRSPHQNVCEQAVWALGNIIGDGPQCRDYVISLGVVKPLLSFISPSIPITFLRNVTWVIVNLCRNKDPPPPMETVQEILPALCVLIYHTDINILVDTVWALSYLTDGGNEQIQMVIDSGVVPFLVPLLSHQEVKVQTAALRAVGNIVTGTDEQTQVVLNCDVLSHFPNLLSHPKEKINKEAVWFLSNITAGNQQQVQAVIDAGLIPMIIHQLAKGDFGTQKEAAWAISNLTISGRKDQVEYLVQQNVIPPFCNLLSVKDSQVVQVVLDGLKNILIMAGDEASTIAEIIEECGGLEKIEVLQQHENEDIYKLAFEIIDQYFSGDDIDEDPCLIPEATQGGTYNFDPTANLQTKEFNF

effect of a mutation on the interaction | Variant
disrupting interaction | K468E
